Four molecules from patent US20090252748A1 (Biogen, published 2009) can be followed below.

Read-outs that look alike come from different tables or passages of the source.

Experiment [1] addresses T1, human Sp35 protein (ELISA, Western, KD; form not stated) (human, UniProt Q96FE5 40-538, limits assumed).
T1 construct: also called huSp35; hLINGO-1
T1 sequence: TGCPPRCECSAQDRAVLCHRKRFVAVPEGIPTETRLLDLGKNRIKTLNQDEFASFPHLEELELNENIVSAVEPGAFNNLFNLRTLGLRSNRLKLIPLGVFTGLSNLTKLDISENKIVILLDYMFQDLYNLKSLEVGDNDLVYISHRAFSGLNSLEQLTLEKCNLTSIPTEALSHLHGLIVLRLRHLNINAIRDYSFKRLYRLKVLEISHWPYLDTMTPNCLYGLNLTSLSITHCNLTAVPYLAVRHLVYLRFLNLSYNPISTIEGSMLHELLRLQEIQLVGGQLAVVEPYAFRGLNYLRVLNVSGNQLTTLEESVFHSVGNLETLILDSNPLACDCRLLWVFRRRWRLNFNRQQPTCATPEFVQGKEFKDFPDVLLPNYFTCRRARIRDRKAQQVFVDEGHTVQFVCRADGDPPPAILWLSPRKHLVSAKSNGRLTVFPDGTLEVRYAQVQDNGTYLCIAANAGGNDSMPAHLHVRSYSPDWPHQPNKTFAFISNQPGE
The experiment in a line: ELISA. (ELISA stands for enzyme-linked immunosorbent assay.)

In experiment [2] the target is T2, full-length human Sp35 with an N-terminal HA tag (lysate of transfected COS-1 cells) (human, UniProt Q96FE5 40-620).
T2 construct: used here for all IP columns headed huSp35 / hLINGO-1; also called huSp35 (IP); hLINGO-1 (IP)
T2 sequence: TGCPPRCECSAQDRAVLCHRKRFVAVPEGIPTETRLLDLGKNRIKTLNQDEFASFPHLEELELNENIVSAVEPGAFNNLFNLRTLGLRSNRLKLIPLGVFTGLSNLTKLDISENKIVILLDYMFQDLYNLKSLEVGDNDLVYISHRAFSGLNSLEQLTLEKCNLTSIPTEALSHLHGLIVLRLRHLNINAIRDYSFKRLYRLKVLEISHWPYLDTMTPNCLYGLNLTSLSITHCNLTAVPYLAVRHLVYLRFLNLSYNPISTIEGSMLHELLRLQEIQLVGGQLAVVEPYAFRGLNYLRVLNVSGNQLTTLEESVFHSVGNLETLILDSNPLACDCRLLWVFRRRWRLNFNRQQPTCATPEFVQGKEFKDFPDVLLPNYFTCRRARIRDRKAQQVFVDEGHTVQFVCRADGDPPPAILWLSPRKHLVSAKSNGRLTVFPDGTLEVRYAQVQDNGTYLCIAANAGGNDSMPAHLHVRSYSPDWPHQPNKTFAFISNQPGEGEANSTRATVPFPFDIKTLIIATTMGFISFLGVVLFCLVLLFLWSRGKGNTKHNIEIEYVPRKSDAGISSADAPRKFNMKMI
The experiment in a line: IP.

The target of experiment [3] is T1, human Sp35 protein (ELISA, Western, KD; …). Kind of experiment: method not stated.
For experiment [4], the target named is T3, mouse Sp35 protein (ELISA, Western, KD; form not stated) (mouse, UniProt Q9D1T0 34-532, limits assumed).
T3 construct: also called mSp35; mLINGO1
T3 sequence (looked up): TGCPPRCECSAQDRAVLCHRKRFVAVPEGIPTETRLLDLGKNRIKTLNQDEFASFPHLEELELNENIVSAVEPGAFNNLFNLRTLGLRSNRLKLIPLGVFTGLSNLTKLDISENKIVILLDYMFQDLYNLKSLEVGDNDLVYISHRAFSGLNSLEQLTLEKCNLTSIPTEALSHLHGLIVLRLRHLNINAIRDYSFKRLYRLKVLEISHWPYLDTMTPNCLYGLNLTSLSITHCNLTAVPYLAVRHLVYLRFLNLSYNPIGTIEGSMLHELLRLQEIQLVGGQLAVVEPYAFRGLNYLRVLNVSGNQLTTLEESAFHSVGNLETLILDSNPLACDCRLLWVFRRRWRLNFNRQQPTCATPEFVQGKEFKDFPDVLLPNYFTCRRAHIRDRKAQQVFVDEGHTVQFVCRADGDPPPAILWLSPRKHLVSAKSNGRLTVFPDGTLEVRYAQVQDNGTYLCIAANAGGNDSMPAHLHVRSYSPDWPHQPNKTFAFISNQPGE
Kind of experiment: method not stated.

Experiment [5] deals with T1, human Sp35 protein (ELISA, Western, KD; …). The experiment in a line: method not stated; second figure of the same phrase, inconsistent with the 10 nM already written.
Experiment [6] has as its target T2, full-length human Sp35 with an …. Kind of experiment: IP. The protocol:
To perform the immunoprecipitation, COS-1 cells expressing Sp35, fused to a hemaglutinin (HA) tag on the N-terminus, were produced by transiently transfecting COS-1 cells with a DNA construct which expresses the full-length Sp35 protein with an HA tag. Cells were harvested 48 hr after transfection and were lysed in 1 ml lysis buffer (50 mM HEPES, pH 7.5, 150 mM NaCl, 1.5 mM MgCl₂, 1 mM EGTA, 1% Triton X-100 and 10% glycerol) for 30 min at 4° C. After centrifugation at 14,000×g for 15 min, the supernatants were incubated with ProteinA/G-Sepharose beads (Santa Cruz) at 4° C. for 1 hr, and then incubated at 4° C. for 1 hr with either the 1A7 or the 2F3 anti-Sp35 murine monoclonal antibodies. The beads were washed 3 times with lysis buffer, boiled in Laemmli sample buffer, subjected to 4-20% SDS-PAGE, and analyzed by Western blotting using an antibody which recognizes the HA tag. As shown on the SDS-PAGE gel, monoclonal antibodies 1A7 and 2F3, immunoprecipitated human and murine Sp35 (FIG. 1). […] Similarly, monoclonal antibodies 1G7, 2B10, 2F3, 3P4C2.2D2, 3P4C8.2G9, Li01, Li03, Li05, Li06, Li07, Li08, Li11, Li12, 7P1D5.1G9 and 3B5.2 immunoprecipitate human or mouse or human and mouse Sp35 (See Table 3B and 3C). Additionally, Li08 immunoprecipitates AP-Sp35 and monoclonal antibodies 1B6.4 and 3E3.1 immunoprecipitate endogenous Sp35 (See Table 3B).
The source holds these as a separate data set.

Experiment [7] has as its target T4, human Sp35 protein expressed on transfected cells (human, UniProt Q96FE5 40-620).
T4 construct: also called huSp35; hLINGO-1
T4 sequence: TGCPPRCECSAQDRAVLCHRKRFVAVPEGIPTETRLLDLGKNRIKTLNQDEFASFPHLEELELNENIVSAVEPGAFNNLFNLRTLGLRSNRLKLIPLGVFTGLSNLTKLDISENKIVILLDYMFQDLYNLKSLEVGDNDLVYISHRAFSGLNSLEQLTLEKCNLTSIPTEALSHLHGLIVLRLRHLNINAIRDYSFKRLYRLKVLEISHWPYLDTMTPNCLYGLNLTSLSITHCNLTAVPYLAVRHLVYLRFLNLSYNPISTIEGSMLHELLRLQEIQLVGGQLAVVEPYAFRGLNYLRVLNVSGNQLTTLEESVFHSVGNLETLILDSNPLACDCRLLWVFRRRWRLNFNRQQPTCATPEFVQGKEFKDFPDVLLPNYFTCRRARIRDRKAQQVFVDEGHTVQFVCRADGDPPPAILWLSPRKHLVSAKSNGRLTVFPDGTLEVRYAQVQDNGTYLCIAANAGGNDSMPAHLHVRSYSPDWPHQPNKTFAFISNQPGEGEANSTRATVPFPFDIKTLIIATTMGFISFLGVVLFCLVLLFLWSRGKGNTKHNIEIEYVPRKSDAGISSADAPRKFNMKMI
The experiment in a line: FACS. A general note: In flow cytometry, cells or beads pass a laser one at a time.

B1: 79-G02 (Dli32) Fab (Fab, V domains shown)
VH: EVQLLESGGGLVQPGGSLRLSCAASGFTFSAYMMQWVRQAPGKGLEWVSSISPSGGNTKYADSVKGRFTISRDNSKNTLYLQMNSLRAEDTAVYYCARGDYGYWFDPWGQGTLVTVSS
VL: DIQMTQSPDSLSASVGDRVTITCQASQDISYYLNWYQQKPGMAPKLLIYDAFILEGGAPSRFSGSGSGTDFSFTISNLQPEDIATYFCQQSDQLPVTFGQGTKVEIR
notes: human
B1: the binding result in experiment [1] was “binds”.

B2: 80-D02 (Dli34) Fab (Fab, V domains shown)
VH: EVQLLESGGGLVQPGGSLRLSCAASGFTFSNYEMYWVRQAPGKGLEWVSGIYSSGGITVYADSVKGRFTISRDNSKNTLYLQMNSLRAEDTAVYYCARAAILDWYFDLWGRGTLVTVSS
VL: DIQMTQSPSSLSASVGDRVTITCHASQDISNYLSWYQQKPGKAPKLLIYDAFNLETGVPSRFSGSGSGTDFTFTISSLQPEDFATYYCQHYDNLPFTFGPGTRVAIR
notes: human
Regarding B2, the binding result in experiment [2] and in experiment [1] was “binds” throughout.

B3: 1A7 monoclonal antibody (antibody, mouse IgG1, V domains shown)
VH: QVQLVQSGPELKKPGETVKISCKASGYTFTNYGMNWVKQAPGKGLKWMGWINTDTGEPTYTEDFQGRFAFSLETSASTVYLQFNNLKNEDTATYFCAREGVHFDYWGQGTTVTVSS
VL: QIVLTQSPAIMSASPGEKVTMTCSASSSVSYMHWYQQKSGTSPKRWIYDTSKLASGVPARFSGSGSGTSYSLTISSMEAEDAATYYCQQWSSNPFTFGSGTKLEIK
notes: murine IgG1/kappa; also called P1A7; 1A7 mAb
For orientation: Kd means the concentration at which binding is half-saturated. Low values mean a tighter complex, high ones a looser complex. With B3, the Kd was found to be 10 nM in experiment [3], 20000 nM in experiment [4] and 1 nM in experiment [5].

B4: 30-B01 (Li11) Fab (Fab, V domains shown)
VH: EVQLLESGGGLVQPGGSLRLSCAASGFTFSSYAMYWVRQAPGKGLEWVSSISTSGGYTGYADSVKGRFTISRDNSKNTLYLQMNSLRAEDTAVYYCARDTSDNDYYYMDVWGKGTTVTVSS
VL: DIQMTQSPSSVSAPIGDRVTITCRASQEIANYLAWYQQKPGKAPKLLIYDTYTLQTDVPPRFSGSGSGTDFTLTISSLQPEDTATYFCQQADIFPLSFGGGTKVEIK
notes: human, kappa; also called Dli11; Li011
As for B4, the binding result in experiment [6], in experiment [7] and in experiment [1] was “binds” in each case.
